T1: BCMA expressed on target cells (CHO-K1-BCMA recombinant cell line; MM.1S; RPMI8226) (human, UniProt Q02223 1-184)
T1 sequence (looked up): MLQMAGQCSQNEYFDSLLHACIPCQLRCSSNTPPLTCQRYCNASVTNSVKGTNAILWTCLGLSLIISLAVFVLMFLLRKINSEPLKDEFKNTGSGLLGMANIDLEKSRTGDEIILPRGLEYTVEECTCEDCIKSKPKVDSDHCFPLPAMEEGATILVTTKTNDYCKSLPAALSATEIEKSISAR

T2: CD19 expressed on Nalm6 cells (UniProt P15391 20-556, limits assumed)
T2 sequence (looked up): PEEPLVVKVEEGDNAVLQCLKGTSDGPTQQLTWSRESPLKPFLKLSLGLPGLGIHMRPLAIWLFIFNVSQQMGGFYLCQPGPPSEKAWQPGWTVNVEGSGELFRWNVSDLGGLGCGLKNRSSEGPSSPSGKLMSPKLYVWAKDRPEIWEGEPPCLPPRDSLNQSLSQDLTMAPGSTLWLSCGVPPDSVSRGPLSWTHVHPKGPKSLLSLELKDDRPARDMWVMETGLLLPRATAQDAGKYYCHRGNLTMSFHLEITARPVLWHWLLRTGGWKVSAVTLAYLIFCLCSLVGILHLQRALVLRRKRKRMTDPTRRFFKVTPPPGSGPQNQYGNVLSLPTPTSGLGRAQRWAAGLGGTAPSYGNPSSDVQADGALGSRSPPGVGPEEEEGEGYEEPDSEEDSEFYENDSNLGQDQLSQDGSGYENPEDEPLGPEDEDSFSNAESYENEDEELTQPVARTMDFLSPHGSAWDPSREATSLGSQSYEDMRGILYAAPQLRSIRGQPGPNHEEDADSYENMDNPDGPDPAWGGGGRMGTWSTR

T3: human BCMA (antigen) (human, UniProt Q02223 1-54, limits assumed)
T3 construct: Antigen coupled to the CM5 chip in SPR; also called B-cell maturation antigen; TNFRF17
T3 sequence (looked up): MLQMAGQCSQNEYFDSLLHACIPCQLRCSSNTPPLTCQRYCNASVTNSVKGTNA

T4: human CD19 (antigen) (human, UniProt P15391 20-291, limits assumed)
T4 sequence (looked up): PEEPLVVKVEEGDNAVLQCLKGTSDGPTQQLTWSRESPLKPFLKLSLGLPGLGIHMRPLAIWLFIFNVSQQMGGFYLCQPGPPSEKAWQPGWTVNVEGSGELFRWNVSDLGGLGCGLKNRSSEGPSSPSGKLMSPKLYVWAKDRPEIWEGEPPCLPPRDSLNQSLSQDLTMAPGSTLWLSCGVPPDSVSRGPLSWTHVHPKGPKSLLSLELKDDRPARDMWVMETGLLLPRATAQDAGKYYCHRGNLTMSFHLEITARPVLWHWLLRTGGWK

B1: TanCAR 02 (other)
chain: DIVMTQSPLSLPVTPGEPASISCRSSQSLVHSNGNTFLHWYLQKPGQSPQLLIYKVSNRFSGVPDRFSGSGSGTDFTLKISRVEAEDVGVYYCMQSTHVLTFGGGTKLEIKRAGGGGSGGGGSGGGGSQVQLVQSGAEVKKPGASVKVSCKASGYTFTDYLMHWVRQAPGQGLEWMGWINTETGEPTYADDFKGRVTMTRDTSTSTVYMELSSLRSEDTAVYYCAPSLYYGYSWFTYWGQGTLVTVSEAAAKEAAAKEAAAKQVTLRESGPALVKPTQTLTLTCTFSGVSLPDYGVSWIRQPPGKALEWLAVIWGSETTYYNSALKSRLTISKDTSKNQVVLTMTNMDPVDTATYYCAKHYYYGGSYAMDYWGQGTTVTVSSGGGGSGGGGSGGGGSEIVLTQSPATLSLSPGERATLSCRASQDISKYLNWYQQKPGQAPRLLIYHTSRLHSGIPDRFSGSGSGTDFTLTISRLEPEDIAVYYCQQGNTLPYTFGQGTKLEITTTPAPRPPTPAPTIASQPLSLRPEACRPAAGGAVHTRGLDFACDIYIWAPLAGTCGVLLLSLVITLYCKRGRKKLLYIFKQPFMRPVQTTQEEDGCSCRFPEEEEGGCELRVKFSRSADAPAYKQGQNQLYNELNLGRREEYDVLDKRRGRDPEMGGKPRRKNPQEGLYNELQKDKMAEAYSEIGMKGERRRGKGHDGLYQGLSTATKDTYDALHMQALPPR
notes: Tandem bispecific chimeric antigen receptor on human T cells; built here from its parts without the signal peptide; also called TanCAR 02 CAR-T
B2: TanCAR 08 (other)
chain: DIVMTQSPLSLPVTPGEPASISCRSSQSLVHSNGNTFLHWYLQKPGQSPQLLIYKVSNRFSGVPDRFSGSGSGTDFTLKISRVEAEDVGVYYCMQSTHVLTFGGGTKLEIKRAGGGGSGGGGSGGGGSQVQLVQSGAEVKKPGASVKVSCKASGYTFTDYLMHWVRQAPGQGLEWMGWINTETGEPTYADDFKGRVTMTRDTSTSTVYMELSSLRSEDTAVYYCAPSLYYGYSWFTYWGQGTLVTVSGGGGSGGGGSGGGGSGGGGSQVTLRESGPALVKPTQTLTLTCTFSGVSLPDYGVSWIRQPPGKALEWLAVIWGSETTYYNSALKSRLTISKDTSKNQVVLTMTNMDPVDTATYYCAKHYYYGGSYAMDYWGQGTTVTVSSGSTSGSGKPGSGEGSTKGEIVLTQSPATLSLSPGERATLSCRASQDISKYLNWYQQKPGQAPRLLIYHTSRLHSGIPDRFSGSGSGTDFTLTISRLEPEDIAVYYCQQGNTLPYTFGQGTKLEITTTPAPRPPTPAPTIASQPLSLRPEACRPAAGGAVHTRGLDFACDIYIWAPLAGTCGVLLLSLVITLYCKRGRKKLLYIFKQPFMRPVQTTQEEDGCSCRFPEEEEGGCELRVKFSRSADAPAYQQGQNQLYNELNLGRREEYDVLDKRRGRDPEMGGKPRRKNPQEGLYNELQKDKMAEAYSEIGMKGERRRGKGHDGLYQGLSTATKDTYDALHMQALPPR
notes: Tandem bispecific chimeric antigen receptor on human T cells; built here from its parts without the signal peptide; also called TanCAR 08 CAR-T
B3: TanCAR 06 (other)
chain: QVTLRESGPALVKPTQTLTLTCTFSGVSLPDYGVSWIRQPPGKALEWLAVIWGSETTYYNSALKSRLTISKDTSKNQVVLTMTNMDPVDTATYYCAKHYYYGGSYAMDYWGQGTTVTVSSGGGGSDIVMTQSPLSLPVTPGEPASISCRSSQSLVHSNGNTFLHWYLQKPGQSPQLLIYKVSNRFSGVPDRFSGSGSGTDFTLKISRVEAEDVGVYYCMQSTHVLTFGGGTKLEIKRAGGGGSGGGGSGGGGSGGGGSQVQLVQSGAEVKKPGASVKVSCKASGYTFTDYLMHWVRQAPGQGLEWMGWINTETGEPTYADDFKGRVTMTRDTSTSTVYMELSSLRSEDTAVYYCAPSLYYGYSWFTYWGQGTLVTVSGGGGSEIVLTQSPATLSLSPGERATLSCRASQDISKYLNWYQQKPGQAPRLLIYHTSRLHSGIPDRFSGSGSGTDFTLTISRLEPEDIAVYYCQQGNTLPYTFGQGTKLEITTTPAPRPPTPAPTIASQPLSLRPEACRPAAGGAVHTRGLDFACDIYIWAPLAGTCGVLLLSLVITLYCKRGRKKLLYIFKQPFMRPVQTTQEEDGCSCRFPEEEEGGCELRVKFSRSADAPAYKQGQNQLYNELNLGRREEYDVLDKRRGRDPEMGGKPRRKNPQEGLYNELQKDKMAEAYSEIGMKGERRRGKGHDGLYQGLSTATKDTYDALHMQALPPR
notes: Tandem (looped) bispecific chimeric antigen receptor on human T cells; built here from its parts without the signal peptide; also called TanCAR 06 CAR-T
B4: TanCAR 05 (other)
chain: DIVMTQSPLSLPVTPGEPASISCRSSQSLVHSNGNTFLHWYLQKPGQSPQLLIYKVSNRFSGVPDRFSGSGSGTDFTLKISRVEAEDVGVYYCMQSTHVLTFGGGTKLEIKRAGGGGSQVQLVQSGAEVKKPGASVKVSCKASGYTFTDYLMHWVRQAPGQGLEWMGWINTETGEPTYADDFKGRVTMTRDTSTSTVYMELSSLRSEDTAVYYCAPSLYYGYSWFTYWGQGTLVTVSGGGGSGGGGSGGGGSGGGGSQVTLRESGPALVKPTQTLTLTCTFSGVSLPDYGVSWIRQPPGKALEWLAVIWGSETTYYNSALKSRLTISKDTSKNQVVLTMTNMDPVDTATYYCAKHYYYGGSYAMDYWGQGTTVTVSSGGGGSEIVLTQSPATLSLSPGERATLSCRASQDISKYLNWYQQKPGQAPRLLIYHTSRLHSGIPDRFSGSGSGTDFTLTISRLEPEDIAVYYCQQGNTLPYTFGQGTKLEITTTPAPRPPTPAPTIASQPLSLRPEACRPAAGGAVHTRGLDFACDIYIWAPLAGTCGVLLLSLVITLYCKRGRKKLLYIFKQPFMRPVQTTQEEDGCSCRFPEEEEGGCELRVKFSRSADAPAYKQGQNQLYNELNLGRREEYDVLDKRRGRDPEMGGKPRRKNPQEGLYNELQKDKMAEAYSEIGMKGERRRGKGHDGLYQGLSTATKDTYDALHMQALPPR
notes: Tandem bispecific chimeric antigen receptor on human T cells; built here from its parts without the signal peptide; also called TanCAR 05 CAR-T
B5: TanCAR 10 (other)
chain: DIVMTQSPLSLPVTPGEPASISCRSSQSLVHSNGNTFLHWYLQKPGQSPQLLIYKVSNRFSGVPDRFSGSGSGTDFTLKISRVEAEDVGVYYCMQSTHVLTFGGGTKLEIKRAGGGGSGGGGSGGGGSQVQLVQSGAEVKKPGASVKVSCKASGYTFTDYLMHWVRQAPGQGLEWMGWINTETGEPTYADDFKGRVTMTRDTSTSTVYMELSSLRSEDTAVYYCAPSLYYGYSWFTYWGQGTLVTVSGGGGSGGGGSGGGGSGGGGSEVKLQESGPGLVAPSQSLSVTCTVSGVSLPDYGVSWIRQPPRKGLEWLGVIWGSETTYYNSALKSRLTIIKDNSKSQVFLKMNSLQTDDTAIYYCAKHYYYGGSYAMDYWGQGTSVTVSSGSTSGSGKPGSGEGSTKGDIQMTQTTSSLSASLGDRVTISCRASQDISKYLNWYQQKPDGTVKLLIYHTSRLHSGVPSRFSGSGSGTDYSLTISNLEQEDIATYFCQQGNTLPYTFGGGTKLEITESKYGPPCPPCPFWVLVVVGGVLACYSLLVTVAFIIFWVKRGRKKLLYIFKQPFMRPVQTTQEEDGCSCRFPEEEEGGCELRVKFSRSADAPAYKQGQNQLYNELNLGRREEYDVLDKRRGRDPEMGGKPRRKNPQEGLYNELQKDKMAEAYSEIGMKGERRRGKGHDGLYQGLSTATKDTYDALHMQALPPR
notes: Tandem bispecific chimeric antigen receptor on human T cells; built here from its parts without the signal peptide; also called TanCAR 10 CAR-T

Key:
[1] = biological target: T1, BCMA expressed on target cells …; experiment: cell-based or functional assay
[2] = biological target: T2, CD19 expressed on Nalm6 cells; experiment: cell-based or functional assay
human BCMA (antigen) = biological target: T3, human BCMA (antigen); experiment: flow cytometry of lentivirus-transduced T cells labelled with antigen, 48 h after transduction; percent positive cells
Text: (§1) The nucleic acid sequence encoding the CAR was expressed under the drive of a promoter, therefore the lentivirus-transfected T cells could be labeled with an antigen or anti-CD19 antibody and measured by flow cytometry, to reflect the expression level of the CAR on the surface of the T cells.

human CD19 (antigen) = biological target: T4, human CD19 (antigen); experiment: flow cytometry of lentivirus-transduced T cells labelled with antigen or anti-CD19 antibody, 48 h after transduction; percent positive cells
Text: as §1

Binder	lysis rate of CHO-K1-BCMA-luc cells by CAR-T cells, ratio 0.25:1 [1] [%]	lysis rate of CHO-K1-BCMA-luc cells by CAR-T cells, ratio 0.5:1 [1] [%]	lysis rate of CHO-K1-BCMA-luc cells by CAR-T cells, ratio 1:1 [1] [%]	lysis rate of CHO-K1-BCMA-luc cells by CAR-T cells, ratio 2:1 [1] [%]	lysis rate of Nalm6-luc cells by CAR-T cells, ratio 0.25:1 [2] [%]	lysis rate of Nalm6-luc cells by CAR-T cells, ratio 0.5:1 [2] [%]	lysis rate of Nalm6-luc cells by CAR-T cells, ratio 1:1 [2] [%]	lysis rate of Nalm6-luc cells by CAR-T cells, ratio 2:1 [2] [%]	Positive rate of binding to BCMA (human BCMA (antigen)) [%]	Positive rate of binding to CD19 (human CD19 (antigen)) [%]
B1	24	35.9	60.7	59	26.1	49.8	70.1	82.4	14.1	12.7
B2	12.3	38.4	65.9		65.9	83.8	92.2		28.5	24.4
B3	31.9	48.3	78.4	92.9	68.3	62.9	88.9	95.5	13.3	16.4
B4	26.6	39.2	58.2	79.8	25.8	42.4	67.7	91.2	14.2	11.8
B5	17.1	36	57.9		59.6	77.4	91.5		39.8	34.8
